Data reported in article PMC10747430, “^99mTc-Labeled Cyclic Peptide Targeting PD-L1 as a Novel Nuclear Imaging Probe” (Pharmaceutics, 2023).

Tests used:
[1] = molecular target: T1, human integrin αVβ3 protein (Homo sapiens, UniProt P05106+P06756); test: Radio-SDS-PAGE with integrin (negative control protein); type: binding; details: radiopeptide incubated with integrin αVβ3 (200 µg/mL) 30 min at 37 °C, radio-TLC scan
T1 construct: purchased Chemicom, Merck
Description: SDS-PAGE gel electrophoresis was performed. Radioactivity distribution was determined using a radio-TLC scanner (Mini-Gita, 60–150 keV, BGO-Crystal, window 25 × 2 mm, thickness 5 mm, resolution optimized for Tc-99m; RayTest, Munich, Germany) to detect [^99mTc]Tc-iPD-L1 and [^99mTc]Tc-WL12 binding to PD-L1 protein.
Briefly, ^99mTc-labeled WL12 and iPD-L1 solutions (100 µL) (1 mg/mL peptide) were incubated with human recombinant PD-L1 protein (100 µL) (200 µg/mL; FineTest; Cat: P6857) (radiopeptide-PD-L1 interaction) or human integrin αVβ3 protein (100 µL) (negative control; 200 µg/mL) (Chemicom, Merck; Burlington, MA, USA) (radiopeptide-integrin interaction) for 30 min at 37 °C, after which the samples were diluted with Laemmli sample buffer (containing 10% SDS, Tris-Cl 125 mM, pH = 6.8, 12.5% glycerol and 0.005% bromophenol blue after dye) to give final protein concentrations of 25 µg/mL. […] Finally, the radioactivity distribution on the gels was scanned using a radio-TLC detector to determine the percentage of [^99mTc]Tc-iPD-L1 or [^99mTc]Tc-WL12 radioactivity associated with proteins.
In vitro-specific recognition of [^99mTc]Tc-iPD-L1 and [^99mTc]Tc-WL12 by the PD-L1 protein was performed using a combination of radio-TLC and SDS-PAGE (radio-SDS-PAGE). […] Therefore, the radioactivity associated with free peptides is in the front of the gel plate (around 60–70 mm). […]

[2] = Serum protein binding; type: in vitro ADME; details: human serum (diluted 5x), 37 °C, size-exclusion radio-HPLC, n = 3
Description: (§1) The stability of [^99mTc]Tc-iPD-L1 and [^99mTc]Tc-WL12 was evaluated by diluting the samples in human serum (5x). The radiopharmaceuticals (n = 3) were heated at 37 °C and analyzed at 0.5, 3, and 24 h for radiochemical purity by size-exclusion radio-HPLC (ProteinPak 300SW, Waters Corporation, Milford, CT, USA).
(§2) The radioactivity from [^99mTc]Tc-iPD-L1 bound to serum proteins was 1.3 ± 0.8% at 30 min, 3.2 ± 1.3% at 3 h, and 7.6 ± 1.9% at 24 h. High radiochemical stability (>90% at 24 h) was also observed. In the case of [^99mTc]Tc-WL12, protein binding was 1.0 ± 0.4% at 30 min, 3.3 ± 0.9% at 3 h, and 6.0 ± 1.3% at 24 h, with a radiochemical purity of >90% at 24 h. Therefore, there was no significant difference […] in protein binding and serum stability between the radiotracers.

[3] = Stability in human serum; type: in vitro ADME; details: human serum (diluted 5x), 37 °C, n = 3
Description: as §1, §2

[4] = Reversed-phase radio-HPLC retention time (lipophilicity); type: physicochemical; details: µBondapak C18 3.9 mm × 30 cm, linear gradient 0.1% TFA-acetonitrile / 0.1% TFA-water in 20 min; used as measure of lipophilicity
Description: For quality control of the [^99mTc]Tc-iPD-L1 and [^99mTc]Tc-WL12 formulations, parameters such as appearance (clear solution), pH (neutral), sterility, absence of bacterial endotoxins, and radiochemical purity (radio-HPLC; Waters Corporation, Milford, CT, USA; 3.9 mm × 30 cm µBondapak™ C18 column; linear gradient system; solvent A: 0.1% TFA-acetonitrile and solvent B: 0.1% TFA-water, from 100 to 30% of A in 20 min) were evaluated according to the Mexican Pharmacopoeia, in its section on “General Methods of Analysis” (MGA). The retention time of [^99mTc]Tc-WL12 was 15.0 ± 0.3 min and 15.5 ± 0.2 min for [^99mTc]Tc-iPD-L1, while the retention times of ^99mTcO4^− and [^99mTc]Tc-EDDA/tricine were 3.5 ± 0.2 min and 4.5 ± 0.2 min, respectively.
The radiochemical purities of [^99mTc]Tc-iPD-L1 and [^99mTc]Tc-WL12 were 95.5 ± 1.5% without the need for additional purification, as determined by reversed-phase radio-HPLC (Figure 8). As expected, the retention time of [^99mTc]Tc-iPD-L1 was higher than that of [^99mTc]Tc-WL12, which is associated with their CLogP values of 6.38 and 5.78, respectively.
Figure 8 Radio-chromatogram of (a) [^99mTc]Tc-iPD-L1 and (b) [^99mTc]Tc-WL12. Reversed-phase column (C18, 3.9 × 300 mm, 10µm particle size).

T1 sequence (P06756 31-889 limits assumed): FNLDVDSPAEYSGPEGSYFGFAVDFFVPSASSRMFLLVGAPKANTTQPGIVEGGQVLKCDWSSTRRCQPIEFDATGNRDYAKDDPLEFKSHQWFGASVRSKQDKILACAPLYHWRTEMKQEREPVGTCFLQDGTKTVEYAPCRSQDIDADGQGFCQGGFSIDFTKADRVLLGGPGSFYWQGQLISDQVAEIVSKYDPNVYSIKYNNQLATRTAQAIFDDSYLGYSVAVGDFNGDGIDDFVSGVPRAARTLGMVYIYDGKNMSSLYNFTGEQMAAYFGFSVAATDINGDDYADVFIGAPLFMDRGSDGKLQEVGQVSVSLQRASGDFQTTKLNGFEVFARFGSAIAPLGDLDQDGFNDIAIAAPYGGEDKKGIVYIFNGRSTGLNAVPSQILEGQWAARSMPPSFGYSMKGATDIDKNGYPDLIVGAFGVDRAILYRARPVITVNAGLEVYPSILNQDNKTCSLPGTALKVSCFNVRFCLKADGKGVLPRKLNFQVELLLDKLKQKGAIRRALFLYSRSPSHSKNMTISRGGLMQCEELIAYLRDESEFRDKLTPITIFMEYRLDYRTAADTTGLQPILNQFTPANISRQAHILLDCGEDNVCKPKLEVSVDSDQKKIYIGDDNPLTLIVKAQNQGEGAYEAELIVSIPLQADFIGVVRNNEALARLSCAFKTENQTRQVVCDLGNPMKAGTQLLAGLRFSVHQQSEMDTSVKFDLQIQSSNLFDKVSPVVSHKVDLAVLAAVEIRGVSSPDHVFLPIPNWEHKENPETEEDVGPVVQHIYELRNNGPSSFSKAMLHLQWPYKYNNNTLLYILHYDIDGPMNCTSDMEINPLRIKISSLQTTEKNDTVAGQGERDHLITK
T1 sequence (P06756 891-1048 limits assumed): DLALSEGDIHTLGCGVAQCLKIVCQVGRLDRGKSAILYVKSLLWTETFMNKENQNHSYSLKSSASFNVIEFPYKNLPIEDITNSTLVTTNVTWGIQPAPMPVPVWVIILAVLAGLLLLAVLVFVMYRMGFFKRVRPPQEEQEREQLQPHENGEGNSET
T1 sequence (P05106 27-788): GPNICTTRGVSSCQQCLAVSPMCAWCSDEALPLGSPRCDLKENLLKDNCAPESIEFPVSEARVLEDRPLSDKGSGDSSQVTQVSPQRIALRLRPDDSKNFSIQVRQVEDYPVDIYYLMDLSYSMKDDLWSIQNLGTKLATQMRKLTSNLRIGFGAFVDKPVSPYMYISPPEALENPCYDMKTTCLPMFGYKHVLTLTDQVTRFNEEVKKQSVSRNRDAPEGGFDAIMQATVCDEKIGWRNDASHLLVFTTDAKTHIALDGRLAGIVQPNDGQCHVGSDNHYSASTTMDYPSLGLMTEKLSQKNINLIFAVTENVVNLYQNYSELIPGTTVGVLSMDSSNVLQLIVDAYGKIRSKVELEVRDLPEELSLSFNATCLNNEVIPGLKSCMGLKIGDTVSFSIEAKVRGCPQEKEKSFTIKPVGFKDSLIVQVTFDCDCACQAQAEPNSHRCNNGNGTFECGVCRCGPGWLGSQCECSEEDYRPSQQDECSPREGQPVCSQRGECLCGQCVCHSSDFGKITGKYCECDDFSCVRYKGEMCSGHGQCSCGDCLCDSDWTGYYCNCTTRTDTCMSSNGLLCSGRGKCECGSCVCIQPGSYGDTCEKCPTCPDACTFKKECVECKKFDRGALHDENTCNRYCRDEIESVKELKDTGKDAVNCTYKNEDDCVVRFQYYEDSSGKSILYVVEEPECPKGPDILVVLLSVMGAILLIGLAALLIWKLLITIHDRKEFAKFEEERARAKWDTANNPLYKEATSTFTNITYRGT

## CCCC[C@H]1C(=O)N(C)[C@@H](CCCC)C(=O)N[C@@H](CCCNC(=O)c2ccc(NN)nc2)C(=O)N[C@H](C(=O)NCC(N)=O)CSCC(=O)N[C@@H](Cc2ccc(O)cc2)C(=O)N(C)[C@@H](C)C(=O)N[C@@H](CC(N)=O)C(=O)N2CCC[C@H]2C(=O)N[C@@H](Cc2c[nH]cn2)C(=O)N[C@@H](CC(C)C)C(=O)N2C[C@H](O)C[C@H]2C(=O)N[C@@H](Cc2c[nH]c3ccccc23)C(=O)N[C@@H](CO)C(=O)N[C@@H](Cc2cn(C)c3ccccc23)C(=O)N1C [[^99mTc]Tc-WL12, metal not drawn]
[1]
  shift in radioactivity with integrin (negative control): no shift in radioactivity
[2]; 30 min
  radioactivity bound to serum proteins at 30 min: 1.0 ± 0.4%
[2]; 3 h
  radioactivity bound to serum proteins at 3 h: 3.3 ± 0.9%
[2]; 24 h
  radioactivity bound to serum proteins at 24 h: 6.0 ± 1.3%
[3]; 30 min, 3 h and 24 h, size-exclusion radio-HPLC
  stability in human serum: remained stable
[3]; 24 h, size-exclusion radio-HPLC (ProteinPak 300SW), read-out: radiochemical stability / radiochemical purity in human serum at 24 h
  remaining at 24 h: > 90%
[4]
  retention time, reversed-phase radio-HPLC: 15.0 ± 0.3 min
